Drawing on publication PMC7870876, this text covers stoichiometry N for one molecule.

In the test the target is Synaptophysin (rat (endogenous in rat brain synaptic vesicles)), P07825. The experiment in a line: cross-linking; BS3 cross-linked synaptic vesicle proteins, gel electrophoresis, western blot with antibodies against Synaptobrevin-2 and Synaptophysin. The conditions noted are these: remark: other sources report otherwise.

B1: Synaptophysin, P07825 1-307 (natural protein)
chain: MDVVNQLVAGGQFRVVKEPLGFVKVLQWVFAIFAFATCGSYTGELRLSVECANKTESALNIEVEFEYPFRLHQVYFDAPSCVKGGTTKIFLVGDYSSSAEFFVTVAVFAFLYSMGALATYIFLQNKYRENNKGPMMDFLATAVFAFMWLVSSSAWAKGLSDVKMATDPENIIKEMPMCRQTGNTCKELRDPVTSGLNTSVVFGFLNLVLWVGNLWFVFKETGWAAPFMRAPPGAPEKQPAPGDAYGDAGYGQGPGGYGPQDSYGPQGGYQPDYGQPASGGGGYGPQGDYGQQGYGQQGAPTSFSNQM
In the case of B1, the stoichiometry N came out at 2.
